The source of these data is article PMC10668032, “Altered binding affinity of SIX1-Q177R correlates with enhanced WNT5A and WNT pathway effector expression in Wilms tumor”.

This data set has as its target T1, SIX1-Q177R (human, UniProt Q15475 1-284, Q177R).
T1 sequence: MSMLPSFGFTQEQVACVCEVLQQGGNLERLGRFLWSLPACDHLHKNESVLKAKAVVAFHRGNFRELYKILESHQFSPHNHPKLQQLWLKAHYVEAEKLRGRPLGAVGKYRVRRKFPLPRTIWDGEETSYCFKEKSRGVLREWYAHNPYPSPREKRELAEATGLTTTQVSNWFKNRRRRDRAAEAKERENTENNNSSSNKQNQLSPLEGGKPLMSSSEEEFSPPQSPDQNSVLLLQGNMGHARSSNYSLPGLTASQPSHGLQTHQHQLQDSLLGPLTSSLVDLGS
The data set can be described thus: EMSA; EMSA: Active Motif Gelshift or Thermo LightShift chemiluminescent kit binding buffer, no glycerol, no poly d(I-C), RT 25 min; protein dilutions 1-300 nM; 6% gel in 0.5x TBE; pH and salt not given. To be noted: protein: recombinant; tags: N-terminal HA from pGEX-6p1-N-HA (GST removed with PreScission); label: biotin 3' end (both strands, Pierce 3' end-labeling kit); blunt. In general terms: Mobility shift assays separate free from complexed probe on a gel.

B1: WNT5A_promoter_EMSA (dsDNA)
DNA 1: CCCGCCCTAAGTGTCAAATTTCCTCCAGGGGAG
DNA 2: CTCCCCTGGAGGAAATTTGACACTTAGGGCGGG
In the case of B1, the binding signal was ~10 fold higher affinity than SIX1 on same probe.
